The test deals with CXCR1 (UniProt P25024). As to the kind of experiment: cell-based or functional assay.

Drawing on patent publication US20150011431A1, this text covers average RLU for two substances.

Sequence of CXCR1 (P25024 whole entry): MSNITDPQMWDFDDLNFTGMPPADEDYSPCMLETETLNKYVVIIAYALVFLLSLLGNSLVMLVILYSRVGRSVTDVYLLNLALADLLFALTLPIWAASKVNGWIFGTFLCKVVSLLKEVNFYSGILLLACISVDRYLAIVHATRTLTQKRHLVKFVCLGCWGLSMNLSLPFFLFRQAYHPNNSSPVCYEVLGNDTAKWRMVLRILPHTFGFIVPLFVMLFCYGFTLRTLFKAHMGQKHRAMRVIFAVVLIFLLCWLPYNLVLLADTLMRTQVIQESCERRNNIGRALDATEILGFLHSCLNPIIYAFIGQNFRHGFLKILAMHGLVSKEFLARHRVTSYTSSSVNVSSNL
Sequence of IL-8 (soluble cytokine) (P10145 28-99 limits assumed): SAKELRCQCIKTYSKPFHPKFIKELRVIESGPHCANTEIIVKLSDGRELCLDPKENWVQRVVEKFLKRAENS

In turn, “IL-8 (soluble cytokine) (from UniProt P10145 28-99) (ligand)” came in with an average RLU at 0.01 nM (beta-arrestin recruitment reporter, CXCR1-U2OS cells) of 440 RLU; an average RLU at 0.08 nM (beta-arrestin recruitment reporter, CXCR1-U2OS cells) of 504 RLU; an average RLU at 0.23 nM (beta-arrestin recruitment reporter, CXCR1-U2OS cells) of 940 RLU; an average RLU at 0.69 nM (beta-arrestin recruitment reporter, CXCR1-U2OS cells) of 1940 RLU. Besides, the average RLU at 2.06 nM (beta-arrestin recruitment reporter, CXCR1-U2OS cells) is 4110 RLU; the average RLU at 6.17 nM (beta-arrestin recruitment reporter, CXCR1-U2OS cells) turned out to be 5870 RLU; the average RLU at 18.52 nM (beta-arrestin recruitment reporter, CXCR1-U2OS cells) was 7300 RLU; the average RLU at 31.5 nM (beta-arrestin recruitment reporter, CXCR1-U2OS cells) was 55500 RLU. Also, the average RLU at 55.56 nM (beta-arrestin recruitment reporter, CXCR1-U2OS cells) was 7360 RLU; the average RLU at 166.67 nM (beta-arrestin recruitment reporter, CXCR1-U2OS cells) was determined as 6770 RLU; the average RLU at 500.00 nM (beta-arrestin recruitment reporter, CXCR1-U2OS cells) stood at 5720 RLU.
In the case of “IgG VH4-4 CDR3 BsaI (lacking the IL-8 insert) (antibody)”, the average RLU at 0.001 nM IgG (beta-arrestin recruitment reporter, CXCR1-U2OS cells) worked out at 7500 RLU; the average RLU at 0.004 nM IgG (beta-arrestin recruitment reporter, CXCR1-U2OS cells) came to 7390 RLU; the average RLU at 0.013 nM IgG (beta-arrestin recruitment reporter, CXCR1-U2OS cells) amounted to 7050 RLU; the average RLU at 0.040 nM IgG (beta-arrestin recruitment reporter, CXCR1-U2OS cells) came to 6970 RLU. The same substance displayed an average RLU at 0.120 nM IgG (beta-arrestin recruitment reporter, CXCR1-U2OS cells) of 7330 RLU; an average RLU at 0.359 nM IgG (beta-arrestin recruitment reporter, CXCR1-U2OS cells) of 6690 RLU; an average RLU at 1.076 nM IgG (beta-arrestin recruitment reporter, CXCR1-U2OS cells) of 7180 RLU; an average RLU at 3.228 nM IgG (beta-arrestin recruitment reporter, CXCR1-U2OS cells) of 7030 RLU. This substance also registered an average RLU at 9.685 nM IgG (beta-arrestin recruitment reporter, CXCR1-U2OS cells) of 7170 RLU; an average RLU at 29.056 nM IgG (beta-arrestin recruitment reporter, CXCR1-U2OS cells) of 7100 RLU; an average RLU at 87.167 nM IgG (beta-arrestin recruitment reporter, CXCR1-U2OS cells) of 7140 RLU; an average RLU at 261.500 nM IgG (beta-arrestin recruitment reporter, CXCR1-U2OS cells) of 7540 RLU.
